Measured values as given in PMC4913355 (Methods in enzymology, 2015).

B1: unfolded OmpW, deuterated (natural protein, UniProt P0A915 22-212, looked up)
chain: HEAGEFFMRAGSATVRPTEGAGGTLGSLGGFSVTNNTQLGLTFTYMATDNIGVELLAATPFRHKIGTRATGDIATVHHLPPTLMAQWYFGDASSKFRPYVGAGINYTTFFDNGFNDHGKEAGLSDLSLKDSWGAAGQVGVDYLINRDWLVNMSVWYMDIDTTANYKLGGAQQHDSVRLDPWVFMFSAGYRF
modifications: partially deuterated (estimated 50 % ± 5 %)
B2: unfolded OmpA, deuterated (natural protein, E. coli, UniProt P0A910 22-346, looked up)
chain: APKDNTWYTGAKLGWSQYHDTGFINNNGPTHENQLGAGAFGGYQVNPYVGFEMGYDWLGRMPYKGSVENGAYKAQGVQLTAKLGYPITDDLDIYTRLGGMVWRADTKSNVYGKNHDTGVSPVFAGGVEYAITPEIATRLEYQWTNNIGDAHTIGTRPDNGMLSLGVSYRFGQGEAAPVVAPAPAPAPEVQTKHFTLKSDVLFNFNKATLKPEGQAALDQLYSQLSNLDPKDGSVVVLGYTDRIGSDAYNQGLSERRAQSVVDYLISKGIPADKISARGMGESNPVTGNTCDNVKQRAALIDCLAPDRRVEIEVKGIKDVVTQPQA
modifications: partially deuterated (estimated 50 % ± 5 %)
B3: Skp (natural protein, E. coli, UniProt P0AEU7 21-161, looked up)
chain: ADKIAIVNMGSLFQQVAQKTGVSNTLENEFKGRASELQRMETDLQAKMKKLQSMKAGSDRTKLEKDVMAQRQTFAQKAQAFEQDRARRSNEERGKLVTRIQTAVKSVANSQDIDLVVDANAVAYNSSDVKDITADVLKQVK

Experiments:
[1] = molecular target: B3; test: contrast variation small-angle neutron scattering
[2] = molecular target: the molecule itself; test: small-angle neutron scattering

Binder | stoichiometry N [1] [Skp monomers per uOMP] | stoichiometry N [2]
B1 | 3 | –
B2 | 3 | –
B3 | – | 3
